One block for each substance: values may come before it.
Columns and labels:
[1] = target: Fc-receptors; assay: cell-based or functional assay
[2] = target: kappa myeloma antigen (KMA) (human); assay: cell-based or functional assay

enrichment of CAR expressing T-cells in culture with PBMC alone (% of CD3+ T-cells) [1]: 28
Substance: KM.CAR-hCH2CH3-28z (receptor)

CAR expression (GFP) in culture in the presence of JJN3 [2]: 5%
expansion of CAR T-cell culture in the presence of JJN3 [2]: 8 fold
Substance: KM.CAR_8a_28TM_41BBz (from UniProt P01732 138-182; P10747 153-179; Q07011 214-255) (receptor)

CAR expression (GFP) in culture with JJN3 [2]: 17%
expansion of CAR T-cell culture with JJN3 [2]: 5 fold
Substance: KM.CAR_h_28TM_41BBz (from UniProt P10747 153-179; Q07011 214-255) (receptor)

Source: patent US20220193232A1
